In the supplement of paper PMC11246515:
± gives the standard deviation of the averaged measurements.

Experiment: total protein half-life in vivo (active degradation + dilution); higher = more stable protein
[1] = E. coli NCM3722 delta-clpP delta-lon delta-hslV, growth: N-lim chemostat, doubling time 6 h
[2] = E. coli NCM3722 delta-clpP, growth: N-lim chemostat, doubling time 6 h
[3] = E. coli NCM3722 delta-lon, growth: N-lim chemostat, doubling time 6 h
[4] = E. coli NCM3722 delta-smpB, growth: N-lim chemostat, doubling time 6 h
[5] = wild type E. coli NCM3722, growth: C-lim chemostat, doubling time 3 h
[6] = wild type E. coli NCM3722, growth: C-lim chemostat, doubling time 6 h
[7] = wild type E. coli NCM3722, growth: C-lim chemostat, doubling time 12 h
[8] = wild type E. coli NCM3722, growth: N-lim chemostat, doubling time 6 h
[9] = wild type E. coli NCM3722, growth: N-lim chemostat, doubling time 12 h
[10] = wild type E. coli NCM3722, growth: P-lim chemostat, doubling time 6 h
[11] = wild type E. coli NCM3722, growth: P-lim chemostat, doubling time 12 h
[12] = E. coli NCM3722 delta-hslV, growth: N-lim chemostat, doubling time 6 h

| Sequence | total protein half-life in vivo [1] [h] | total protein half-life in vivo [2] [h] | total protein half-life in vivo [3] [h] | total protein half-life in vivo [4] [h] | total protein half-life in vivo [5] [h] | total protein half-life in vivo [6] [h] | total protein half-life in vivo [7] [h] | total protein half-life in vivo [8] [h] | total protein half-life in vivo [9] [h] | total protein half-life in vivo [10] [h] | total protein half-life in vivo [11] [h] | total protein half-life in vivo [12] [h] |
| --- | --- | --- | --- | --- | --- | --- | --- | --- | --- | --- | --- | --- |
| MKPFLRWCFVATALTLAGCSNTSWRKSEVLAVPLQPTLQQEVILARMEQILASRALTDDERAQLLYERGVLYDSLGLRALARNDFSQALAIRPDMPEVFNYLGIYLTQAGNFDAAYEAFDSVLELDPTYNYAHLNRGIALYYGGRDKLAQDDLLAFYQDDPNDPFRSLWLYLAEQKLDEKQAKEVLKQHFEKSDKEQWGWNIVEFYLGNISEQTLMERLKADATDNTSLAEHLSETNFYLGKYYLSLGDLDSATALFKLAVANNVHNFVEHRYALLELSLLGQDQDDLAESDQQ [P0AFB1] | 6.43 ± 0.4 | 6.3 ± 0.2 | 6.621 ± 0.019 | 6.66 ± 1.2 | 3.15 ± 0.24 | 5.9 ± 0.35 | 11.3 ± 0.48 | 6.12 ± 0.22 | 13.5 ± 2 | 7.56 ± 0.19 | 13.1 ± 0.29 |  |
| MKPGCTLFFLLCSALTVTTEAHAQTPDTATTAPYLLAGAPTFDLSISQFREDFNSQNPSLPLNEFRAIDSSPDKANLTRAASKINENLYASTALERGTLKIKSIQMTWLPIQGPEQKAAKAKAQEYMAAVIRTLTPLMTKTQSQKKLQSLLTAGKNKRYYTETEGALRYVVADNGEKGLTFAVEPIKLALSESLEGLNK | 6.2 ± 0.26 | 5.91 ± 0.5 | 5.3822 ± 0.0028 | 5.12 ± 0.43 | 2.86 ± 0.12 | 5.26 ± 1.2 | 8.36 ± 0.16 | 4.14 ± 0.39 | 8.35 ± 1.6 | 3.75 ± 0.27 | 8.75 ± 1.1 | 5.05 ± 0.18 |
| MKPRQRQAAILEYLQKQGKCSVEELAQYFDTTGTTIRKDLVILEHAGTVIRTYGGVVLNKEESDPPIDHKTLINTHKKELIAEAAVSFIHDGDSIILDAGSTVLQMVPLLSRFNNITVMTNSLHIVNALSELDNEQTILMPGGTFRKKSASFHGQLAENAFEHFTFDKLFMGTDGIDLNAGVTTFNEVYTVSKAMCNAAREVILMADSSKFGRKSPNVVCSLESVDKLITDAGIDPAFRQALEEKGIDVIITGESNE |  | 6.55 ± 0.26 | 6.11 ± 1 | 6.36 ± 0.59 | 3.36 ± 0.46 | 6.64 ± 0.39 | 12.6 ± 2.2 | 6.06 ± 0.35 | 13 ± 0.2 | 5.82 ± 0.56 | 12.5 ± 0.15 | 5.66 ± 0.25 |
| MKPSSSNSRSKGHAKARRKTREELDQEARDRKRQKKRRGHAPGSRAAGGNTTSGSKGQNAPKDPRIGSKTPIPLGVTEKVTKQHKPKSEKPMLSPQAELELLETDERLDALLERLEAGETLSAEEQSWVDAKLDRIDELMQKLGLSYDDDEEEEEDEKQEDMMRLLRGN [P0A8H6] | 5.38 ± 0.29 | 5.18 ± 0.7 | 3.93 ± 0.22 | 4.09 ± 1.7 | 2.52 ± 0.0028 | 4.36 ± 0.45 | 7.24 ± 1.8 | 3.59 ± 0.17 | 5.58 ± 1 | 2.98 | 5.38 ± 0.71 | 4.08 ± 0.55 |
| MKPSVILYKALPDDLLQRLQEHFTVHQVANLSPQTVEQNAAIFAEAEGLLGSNENVNAALLEKMPKLRATSTISVGYDNFDVDALTARKILLMHTPTVLTETVADTLMALVLSTARRVVEVAERVKAGEWTASIGPDWYGTDVHHKTLGIVGMGRIGMALAQRAHFGFNMPILYNARRHHKEAEERFNARYCDLDTLLQESDFVCLILPLTDETHHLFGAEQFAKMKSSAIFINAGRGPVVDENALIAALQKGEIHAAGLDVFEQEPLSVDSPLLSMANVVAVPHIGSATHETRYGMAACAVDNLIDALQGKVEKNCVNPHVAD | 4.9 ± 1.3 | 4.12 ± 0.17 | 5.02 ± 0.68 | 3.89 ± 0.12 | 2.95 ± 0.11 | 5.5 ± 0.48 | 8.92 ± 0.31 | 4.03 ± 0.16 | 6.22 ± 0.18 | 5.53 ± 0.1 | 11.1 ± 0.45 | 3.82 ± 0.29 |
| MKPTTISLLQKYKQEKKRFATITAYDYSFAKLFADEGLNVMLVGDSLGMTVQGHDSTLPVTVADIAYHTAAVRRGAPNCLLLADLPFMAYATPEQAFENAATVMRAGANMVKIEGGEWLVETVQMLTERAVPVCGHLGLTPQSVNIFGGYKVQGRGDEAGDQLLSDALALEAAGAQLLVLECVPVELAKRITEALAIPVIGIGAGNVTDGQILVMHDAFGITGGHIPKFAKNFLAETGDIRAAVRQYMAEVESGVYPGEEHSFH | 6.05 ± 0.05 | 5.86 ± 0.2 | 6.74 ± 0.46 | 6.04 ± 0.64 | 2.96 ± 0.031 | 6.93 ± 0.31 | 12.5 ± 2.7 | 5.51 ± 0.51 | 12.3 ± 2.8 | 6.42 ± 1.1 |  | 6.34 ± 0.95 |
| MKQGLQLRLSQQLAMTPQLQQAIRLLQLSTLELQQELQQALESNPLLEQIDTHEEIDTRETQDSETLDTADALEQKEMPEELPLDASWDTIYTAGTPSGTSGDYIDDELPVYQGETTQTLQDYLMWQVELTPFSDTDRAIATSIVDAVDETGYLTVPLEDILESIGDEEIDIDEVEAVLKRIQRFDPVGVAAKDLRDCLLIQLSQFDKTTPWLEEARLIISDHLDLLANHDFRTLMRVTRLKEDVLKEAVNLIQSLDPRPGQSIQTGEPEYVIPDVLVRKHNGHWTVELNSDSIPRLQINQHYASMCNNARNDGDSQFIRSNLQDAKWLIKSLESRNDTLLRVSRCIVEQQQAFFEQGEEYMKPMVLADIAQAVEMHESTISRVTTQKYLHSPRGIFELKYFFSSHVNTEGGGEASSTAIRALVKKLIAAENPAKPLSDSKLTSLLSEQGIMVARRTVAKYRESLSIPPSNQRKQLV | 5.34 ± 0.089 | 4.45 ± 0.42 | 4.78 ± 0.64 | 3.657 ± 0.022 | 2.57 ± 0.1 | 4.75 ± 0.098 | 7.27 ± 1.6 | 3.94 ± 0.43 | 5.68 ± 0.088 | 3.61 ± 0.56 | 6.22 ± 0.58 | 3.48 ± 0.12 |
| MKQHQSADNSQGQLYIVPTPIGNLADITQRALEVLQAVDLIAAEDTRHTGLLLQHFGINARLFALHDHNEQQKAETLLAKLQEGQNIALVSDAGTPLINDPGYHLVRTCREAGIRVVPLPGPCAAITALSAAGLPSDRFCYEGFLPAKSKGRRDALKAIEAEPRTLIFYESTHRLLDSLEDIVAVLGESRYVVLARELTKTWETIHGAPVGELLAWVKEDENRRKGEMVLIVEGHKAQEEDLPADALRTLALLQAELPLKKAAALAAEIHGVKKNALYKYALEQQG | 6.24 ± 1.1 | 5.77 ± 0.73 | 5.1 ± 0.5 | 5.25 ± 0.13 | 3.41 ± 0.11 |  | 11.8 ± 2.3 | 5.57 ± 0.17 | 10.5 ± 0.56 | 5.46 ± 0.11 | 12.4 ± 0.41 | 5.85 ± 0.46 |
